{"source": "patent US20190382503A1", "about": "(published 2019)", "key": {"[1]": {"biological_target": "T1, human 5T4 on cells (human, UniProt Q13641 32-420)", "T1 construct": "Human 5T4 on transfected cells (CHO-K1, CT26, B16) or endogenous on human tumour lines; the cell line is named under assay; also called trophoblast glycoprotein; TPBG", "T1 sequence": "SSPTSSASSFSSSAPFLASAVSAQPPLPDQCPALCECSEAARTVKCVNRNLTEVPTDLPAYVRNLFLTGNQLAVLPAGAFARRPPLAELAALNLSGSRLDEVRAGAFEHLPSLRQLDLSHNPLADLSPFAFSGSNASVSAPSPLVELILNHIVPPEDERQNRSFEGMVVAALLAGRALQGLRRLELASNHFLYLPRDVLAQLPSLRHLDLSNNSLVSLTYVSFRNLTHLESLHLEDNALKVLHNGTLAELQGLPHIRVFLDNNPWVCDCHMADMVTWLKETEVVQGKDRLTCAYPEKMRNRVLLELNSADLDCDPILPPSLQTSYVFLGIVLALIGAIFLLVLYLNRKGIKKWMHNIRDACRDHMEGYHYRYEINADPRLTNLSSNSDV", "test": "flow cytometry, CT26-hu5T4^high cells, streptavidin-PE, normalized MFI of 2 pooled experiments", "protocol": "Biotinylation: In order to detect ALG.APV-210 binding to 5T4-expressing cell lines, ALG.APV-210 was first biotinylated. The quality of the biotinylated protein and the impact on binding to its targets was assessed using ELISA.\n(§1) FACS staining and analysis of 5T4-expressing cell lines: Prior to the FACS staining, all cell lines were characterized for their 5T4 expression levels using a receptor density kit (Quantum Simply Cellular, anti-human IgG, Bangs Laboratories, Inc). Adherent cell lines were cultured according to their supplier's instructions and were harvested from their cell culture flasks using Trypsin/EDTA, counted in R10 medium in a Burker chamber, and diluted in FACS buffer (PBS+0.5% BSA, 0.05% NaN₃) to a concentration of 4×10⁶ cells/mL. 50 μL (0.20×10⁶) of cell solution was added to a 96-well FACS staining plate (Falcon #351190). Cells were incubated for 20 min in 4° C. with 50 μL of the biotinylated ALG.APV-210 (2× final concentration). […] Cells were analysed for ALG.APV-210 binding using flow cytometry (FACSVerse) by gating on single cells. MFI values (secondary antibody only subtracted) from 1 out of 2 independent experiments, as well as normalized data and EC₅₀-values of pooled data from 2 experiments were determined and plotted using GraphPad Prism 7, non-linear regression log (agonist) vs. normalized response-variable slope."}, "[2]": {"biological_target": "T1, human 5T4 on cells", "test": "flow cytometry, CT26-hu5T4^low cells, streptavidin-PE, normalized MFI of 2 pooled experiments", "protocol": "as §1, with “concentration). The antibodies were added in a serial dilution starting at 20 μg/mL titrating down in a 12 step 1/2 dilution down to 0.010 μg/mL.” for “concentration).”"}, "[3]": {"biological_target": "T1, human 5T4 on cells", "test": "flow cytometry, JEG cells, streptavidin-PE, normalized MFI of 2 pooled experiments", "protocol": "as §1, with “concentration). The antibodies were added in a serial dilution starting at 20 μg/mL titrating down in a 12 step 1/2 dilution down to 0.010 μg/mL.” for “concentration).”"}, "[4]": {"biological_target": "T2, human CD137 on cells (human, UniProt Q07011 24-255)", "T2 construct": "Human CD137 on CHO-K1 transfectants, Jurkat/CD137 reporter cells or CD3-stimulated primary human CD8 T cells; cells named under assay; also called 4-1BB; TNFRSF9", "T2 sequence (Q07011 24-255 limits assumed)": "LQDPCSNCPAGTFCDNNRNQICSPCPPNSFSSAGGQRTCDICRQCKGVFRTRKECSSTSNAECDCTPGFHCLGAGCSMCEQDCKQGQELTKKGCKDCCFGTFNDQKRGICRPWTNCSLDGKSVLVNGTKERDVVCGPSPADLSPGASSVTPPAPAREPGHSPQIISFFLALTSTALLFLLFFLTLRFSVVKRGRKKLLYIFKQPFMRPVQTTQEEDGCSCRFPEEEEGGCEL", "test": "flow cytometry, CD3-stimulated primary human CD8 T cells (summary of the study)", "protocol": "FACS staining and analysis of CD8 T cells: Following 48 h of incubation with or without CD3, human and cynomolgus PBMC were harvested, pooled, recounted and diluted in FACS buffer (PBS+0.5% BSA, 0.05% NaN₃) to a concentration of 5×10⁶ cells/mL. 50 μL (0.25×10⁶ cells) of cell solution was added to a 96-well FACS staining plate (Falcon #351190). Following 10 min of Fc-blocking in RT using Beriglobin (hIgG, 200 μg/mL), cells were washed in FACS buffer and then incubated for 1 h in 4° C. with 100 μL of the biotinylated ALG.APV-210 or negative control. The antibodies were added in a serial dilution starting either at 5 μg/mL titrating down in a 12 step 1/3 dilution down to 0.0003 μg/mL (exp 1) or 1 μg/mL titrating down in a 12 step 1/2 dilution down to 0.0005 μg/mL (exp 2). […] Cells were analysed for ALG.APV-210 binding using flow cytometry by gating on viable, single cells expressing CD3 and CD8. MFI values (FMO subtracted) from 2 independent experiments as well as normalized pooled data from 2 experiments and EC₅₀-values were determined and plotted using GraphPad Prism 7, non-linear regression log (agonist) vs. normalized response-variable slope, n=6 donors/group."}}, "data": [{"binder": "biotinylated ALG.APV-210 (bispecific antibody, biotinylated (sites not given)) EVQLLESGGGLVQPGGSLRLSCAASGFTFSHGSMYWVRQAPGKGLEWVSSISSGSGSTYYADSVKGRFTISHDNSKNTLYLQMNSLRAEDTAVYYCARSSYYGSYYSIDYWGQGTLVTVSSGGGGSGGGGSGGGGSGGGGSDIQMTQSPSSLSASVGDRVTITCRASQSISSYLNWYQQKPGKAPKLLIYAASSLQSGVPSRFSGSGSGTDFTLTISSLQPEDFATYYCQQYYDNLPTFGQGTKLEIKEPKSSDKTHTCPPCPAPEAAGAPSVFLFPPKPKDTLMISRTPEVTCVVVDVSHEDPEVKFNWYVDGVEVHNAKTKPREEQYNSTYRVVSVLTVLHQDWLNGKEYKCAVSNKALPAPIEKTISKAKGQPREPQVYTLPPSRDELTKNQVSLTCLVKGFYPSDIAVEWESNGQPENNYKTTPPVLDSDGSFFLYSKLTVDKSRWQQGNVFSCSVMHEALHNHYTQKSLSLSPGSGGGGSGGGGSGGGGSPSEVQLLESGGGLVQPGGSLRLSCAASGFTFSSYAMSWVRQAPGKCLEWVSAISGSGGSTYYADSVKGRFTISRDNSKNTLYLQMNSLRAEDTAVYYCARYYGGYYSAWMDYWGQGTLVTVSSGGGGSGGGGSGGGGSGGGGSDIQMTQSPSSLSASVGDRVTITCRASQSISSFLNWYQQKPGKAPKLLIYAASSLQSGVPSRFSGSGSGTDFTLTISSLQPEDSATYYCQQTYGYLHTFGCGTKLEIKR", "values": [{"measurement": "EC50", "setting": "[1]", "result": 20, "unit": "nM"}, {"measurement": "EC50", "setting": "[2]", "result": 11, "unit": "nM"}, {"measurement": "EC50", "setting": "[3]", "result": 8, "unit": "nM"}, {"measurement": "EC50", "setting": "[4]", "result": 0.2, "unit": "nM"}]}]}
